Earlier results on one substance are cited in PMC4859893.

This series addresses EGFR (Homo sapiens) (UniProt P00533).

Take EGF (from UniProt P01133): the Kd – broadly, the concentration at which binding is half-saturated – was 2 nM.
